Source: patent publication US20070036793A1, “Methods for use of an lkb1/strad7mo25 complex” (priority 2003, published 2007)
Where no end group is shown, it is not given here. The star is where a group is joined. C6spacer = spacer between biotin and the peptide; Biotin = O=C1N[C@H]2[C@H](CS[C@H]2CCCCC(=O)*)N1

Assays:
[1] = substrate: CC(C)C[C@H](NC(=O)[C@H](CC(N)=O)NC(=O)[C@H](CO)NC(=O)[C@@H](N)CC(C)C)C(=O)N[C@@H](Cc1ccc(O)cc1)C(=O)N[C@@H](Cc1c[nH]cn1)C(=O)N[C@@H](CCC(N)=O)C(=O)NCC(=O)N[C@@H](CCCCN)C(=O)N[C@@H](Cc1ccccc1)C(=O)N[C@@H](CC(C)C)C(=O)N[C@@H](CCC(N)=O)C(=O)N[C@H](C(=O)N[C@@H](Cc1ccccc1)C(=O)N[C@@H](CS)C(=O)NCC(=O)N[C@@H](CO)C(=O)N1CCC[C@H]1C(=O)N[C@@H](CC(C)C)C(=O)N[C@@H](Cc1ccc(O)cc1)C(=O)N[C@@H](CCCNC(=N)N)C(=O)N[C@@H](CCCNC(=N)N)C(=O)N[C@@H](CCCNC(=N)N)C(=O)O)[C@@H](C)O; experiment: Kinetic analysis of phosphorylation of T-loop peptides by the LKB1:STRAD:MO25 complex (Example 4); type: biochemical; conditions: other: phosphorylation by LKB1 complex, nonlinear regression; pH 7.5; 30.0 °C
Procedure: FIG. 26. Identification of peptide substrates for LKB1. (A) Kinetic analysis of the phosphorylation of the indicated T-loop by the LKB1:STRAD:MO25 complex was performed. The T-loop Thr residue in each peptide is underlined and in boldface type and 3 Arg residues were added to the C-terminus of each T-loop peptide to enable their capture on phosphocellulose p81 paper. Km and Vmax values were determined from nonlinear regression. (B) An aliquot of each peptide phosphorylated by LKB1 complex was subjected to solid phase Edman sequencing and ^32P-radioactivity was measured after each cycle of Edman degradation. […] The results are expressed as the peptide kinase activity generated per mg of LKB1:STRAD:MO25 added to the assay. […]
Measurement of activation of AMPK-related kinases AMPKα1 catalytic subunit and AMPK-related kinases was measured following their phosphorylation with LKB1 as follows. […] After incubation at 30° C. for the times indicated in the figure legend, AMPKα1 catalytic domain or AMPK-related kinase activities were determined by adding 30 μl of 5 mM magnesium acetate, 0.1 mM [γ-^32P]-ATP (300 cpm/pmol) and 200 μM AMARA peptide (AMARAASAAALARRR (Dale et al., 1995)) as substrate. […] Kinetic data was analysed according to the Michaelis-Menten relationship by non-linear regression using the computer program GraphPad Prism (GraphPad Software Inc, San Diego, USA). […]

[2] = tested on: T1, BRSK2 MASLQVGDSLLETSCGSPHYRRR
T1 sequence: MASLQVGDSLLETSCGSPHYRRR

[3] = tested on: T2, LKBtide peptide (NUAK2 T-loop peptide)
T2 sequence: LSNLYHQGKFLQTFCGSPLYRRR

[4] = tested on: T3, MARK3 FSNEFTVGGKLDTFCGSPPYRRR
T3 sequence: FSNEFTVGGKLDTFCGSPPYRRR

[5] = tested on: T4, MELK AKPKGNKDYHLQTCCGSLAYRRR
T4 sequence: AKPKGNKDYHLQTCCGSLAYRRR

[6] = tested on: T5, SIK FGNFYKSGEPLSTWCGSPPYRRR
T5 sequence: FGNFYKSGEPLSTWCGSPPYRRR

[7] = tested on: peptide derived from the T-loop of AMPKα1 (Example 4, FIG. 26A)
[8] = tested on: T1, BRSK2 MASLQVGDSLLETSCGSPHYRRR; experiment: kinetic analysis of peptide phosphorylation by the LKB1:STRAD:MO25 complex, nonlinear regression
[9] = tested on: T3, MARK3 FSNEFTVGGKLDTFCGSPPYRRR; experiment: as above
[10] = tested on: T4, MELK AKPKGNKDYHLQTCCGSLAYRRR; experiment: as above
[11] = tested on: T5, SIK FGNFYKSGEPLSTWCGSPPYRRR; experiment: as above
[12] = target: T6, bacterially expressed MO25α (human, UniProt Q9Y376 1-341); experiment: SPR (BiaCore 3000), biotinylated STRADα-C12 peptide on streptavidin chip, MO25α 6.25-3200 nM, steady-state fit
T6 construct: Expressed as GST fusion from pGEX-6T in E. coli BL21; GST tag cleaved off; also called MO25α protein (E. coli)
T6 sequence: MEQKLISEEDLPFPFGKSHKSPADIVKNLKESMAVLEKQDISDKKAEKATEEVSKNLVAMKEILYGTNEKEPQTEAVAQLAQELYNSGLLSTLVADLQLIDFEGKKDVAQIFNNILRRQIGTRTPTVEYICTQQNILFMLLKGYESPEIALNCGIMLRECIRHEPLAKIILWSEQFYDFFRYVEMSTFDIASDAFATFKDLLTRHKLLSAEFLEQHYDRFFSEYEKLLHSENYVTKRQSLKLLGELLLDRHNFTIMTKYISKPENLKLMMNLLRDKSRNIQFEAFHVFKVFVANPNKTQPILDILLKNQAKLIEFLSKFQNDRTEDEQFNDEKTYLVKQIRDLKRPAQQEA
Procedure: 5 μg of the total cell lysates prior to affinity purification were also subjected to immunoblotting with anti-Myc antibody to ensure that Myc-MO25α was expressed at similar levels in each condition (lower panel). (B) 0.5 mg of the indicated cell lysates was incubated with 5 μg of an N-terminal biotinylated peptide encompassing either the C-terminal 12 residues STRADα conjugated to streptavidin-Sepharose ([…], termed STRADα-C12) or mutants of this peptide in which the indicated residues were individually mutated to Ala. Following isolation and washing of the beads, the samples were subjected to SDS-polyacrylamide gel electrophoresis and immunoblotted with an anti-MO25α antibody. (C) Binding of bacterially expressed MO25α to the indicated peptides was analysed by surface plasmon resonance BiaCore analysis as described in Materials and Methods. […] WEF-C12 corresponds to […], WEA-C12 corresponds to […], AEF-C12 corresponds to […], WAF-C12 corresponds to […], WEF-C6 corresponds to VDDWEF.
Biacore analysis. Binding was analysed in a BiaCore 3000 system (BiaCore AB, Stevenage, UK). The indicated biotinylated peptides were bound to a streptavidin-coated Sensor chip (SA) (20 response units, RU). […] Dissociation of MO25α from each peptide was monitored over a 1 min period. […]

B1: LKB1:STRAD:MO25 complex (Mus musculus) (protein)
chain: MDVADPEPLGLFSEGELMSVGMDTFIHRIDSTEVIYQPRRKRAKLIGKYLMGDLLGEGSYGKVKEVLDSETLCRRAVKILKKKKLRRIPNGEANVKKEIQLLRRLRHRNVIQLVDVLYNEEKQKMYMVMEYCVCGMQEMLDSVPEKRFPVCQAHGYFRQLIDGLEYLHSQGIVHKDIKPGNLLLTTNGTLKISDLGVAEALHPFAVDDTCRTSQGSPAFQPPEIANGLDTFSGFKVDIWSAGVTLYNITTGLYPFEGDNIYKLFENIGRGDFTIPCDCGPPLSDLLRGMLEYEPAKRFSIRQIRQHSWFRKKHPLAEALVPIPPSPDTKDRWRSMTVVPYLEDLHGRAEEEEEEDLFDIEDGIIYTQDFTVPGQVLEEEVGQNGQSHSLPKAVCVNGTEPQLSSKVKPEGRPGTANPARKVCSSNKIRRLSAC
notes: Constructs expressing the full length wild type and kinase dead mouse LKB1 have been described previously; made in house; host or cells: 293 cells, co-transfected
Work on B1 yielded a Km [1] of 150 µM.

B2: LKB1:STRAD:MO25 complex (Example 4, FIG. 26A) (enzyme, part only; not given: STRAD and MO25 subunits, GST)
chain: MDVADPEPLGLFSEGELMSVGMDTFIHRIDSTEVIYQPRRKRAKLIGKYLMGDLLGEGSYGKVKEVLDSETLCRRAVKILKKKKLRRIPNGEANVKKEIQLLRRLRHRNVIQLVDVLYNEEKQKMYMVMEYCVCGMQEMLDSVPEKRFPVCQAHGYFRQLIDGLEYLHSQGIVHKDIKPGNLLLTTNGTLKISDLGVAEALHPFAVDDTCRTSQGSPAFQPPEIANGLDTFSGFKVDIWSAGVTLYNITTGLYPFEGDNIYKLFENIGRGDFTIPCDCGPPLSDLLRGMLEYEPAKRFSIRQIRQHSWFRKKHPLAEALVPIPPSPDTKDRWRSMTVVPYLEDLHGRAEEEEEEDLFDIEDGIIYTQDFTVPGQVLEEEVGQNGQSHSLPKAVCVNGTEPQLSSKVKPEGRPGTANPARKVCSSNKIRRLSACKQQ
B2 showed a Vmax of phosphorylation of the BRSK2 T-loop peptide by the complex [2] of 10.6 U/mg, a Vmax/Km for the BRSK2 T-loop peptide (Vmax in U/mg, Km in mM) [2] of 26 and a Vmax of phosphorylation of the NUAK2 T-loop peptide by the complex [3] of 86.8 U/mg. The Vmax/Km for the NUAK2 T-loop peptide (Vmax in U/mg, Km in mM) [3] was 578, the Vmax of phosphorylation of the MARK3 T-loop peptide by the complex [4] was 10.2 U/mg and the Vmax/Km for the MARK3 T-loop peptide (Vmax in U/mg, Km in mM) [4] was 16. For the same binder, the Vmax of phosphorylation of the MELK T-loop peptide by the complex [5] was > 60 U/mg, the Vmax of phosphorylation of the SIK T-loop peptide by the complex [6] was 63.9 U/mg and the Vmax/Km for the SIK T-loop peptide (Vmax in U/mg, Km in mM) [6] was 139. The “Km (phosphorylation of the T-loop peptide)” value [7] was “(Km, 1.4 mM)”, the Vmax of phosphorylation of the AMPK T-loop peptide by the complex [7] was 94.1 U/mg and the Vmax/Km for the AMPK T-loop peptide (Vmax in U/mg, Km in mM) [7] was 67. For the same binder, the Km [8] was 400 µM, the Km [9] was 620 µM and the Km [10] was > 3000 µM. The Km [11] was 460 µM.

B3: STRADα-C12 peptide (Biotin-C6spacer-NLEELEVDDWEF) (peptide)
peptide: {Biotin-C6spacer}-NLEELEVDDWEF
notes: also called WEF-C12; C-terminal 12 residues of STRADα
B3 gave a Kd [12] of 850 nM.
